Assay results reported in paper PMC4006750, “GOLPH3 Is Essential for Contractile Ring Formation and Rab11 Localization to the Cleavage Site during Cytokinesis in Drosophila melanogaster” (PLoS Genetics, 2014).
Where “and” joins values, the source holds several entries; their conditions need not be identical. Equal entries are not always repeated.

Molecular target: T1, Drosophila GOLPH3, GST removed (ligand of the SPR experiment) (Drosophila melanogaster, UniProt Q9VQ93 1-294)
T1 construct: Drosophila melanogaster GOLPH3 (CG7085, sauron), polypeptide of 293 amino acids, full-length cDNA in pGEX-6p-2; A few vector residues probably remain at the N-terminus after PreScission cleavage; also called dGOLPH3; source: E. coli BL21-CodonPlus [DE3], purified as GST fusion, GST cleaved off with PreScission Protease; not shown: GST, N-terminal, cleaved
Experiment: SPR; BIACORE X, GOLPH3 immobilised on CM5 chip by amine coupling (about 1200 RU); Rab11 analyte 50 nM to 10.0 µM in 10 mM Hepes pH 7.4, 150 mM NaCl, 0.005% surfactant P20, 30 µl/min
Conditions: both partners purified

T1 sequence (Q9VQ93 whole entry, the tested form may be a part): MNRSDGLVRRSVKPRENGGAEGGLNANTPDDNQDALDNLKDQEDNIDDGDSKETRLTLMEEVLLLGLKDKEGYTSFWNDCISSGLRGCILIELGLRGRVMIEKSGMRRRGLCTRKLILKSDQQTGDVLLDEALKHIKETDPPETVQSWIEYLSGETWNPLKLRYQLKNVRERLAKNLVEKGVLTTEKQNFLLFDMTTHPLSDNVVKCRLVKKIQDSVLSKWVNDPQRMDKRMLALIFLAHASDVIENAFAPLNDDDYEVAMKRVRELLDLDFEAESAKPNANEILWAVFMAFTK

Kd: 180 nM
koff: ~0.0002 s⁻¹ and ~0.0001 s⁻¹
B1: Drosophila Rab11, GST removed (analyte of the SPR experiment) (natural protein, UniProt O18335 1-214, looked up)
chain: MGAREDEYDYLFKVVLIGDSGVGKSNLLSRFTRNEFNLESKSTIGVEFATRSIEVDGKTIKAQIWDTAGQERYRAITSAYYRGAVGALLVYDIAKHLTYENVERWLRELRDHADQNIVIMLVGNKSDLRHLRSVPTDEAKLFAERNGLSFIETSALDSTNVETAFQNILTEIYRIVSQKQIRDPPEGDVIRPSNVEPIDVKPTVTADVRKQCCQ
notes: Drosophila Rab11, full-length, made as GST fusion; source: E. coli BL21-CodonPlus [DE3], purified as GST fusion, GST cleaved off with PreScission Protease
